Target: T1, CREB (Har-CREB) (Helicoverpa armigera, UniProt A0A3G1CVR7 1-265)
T1 sequence: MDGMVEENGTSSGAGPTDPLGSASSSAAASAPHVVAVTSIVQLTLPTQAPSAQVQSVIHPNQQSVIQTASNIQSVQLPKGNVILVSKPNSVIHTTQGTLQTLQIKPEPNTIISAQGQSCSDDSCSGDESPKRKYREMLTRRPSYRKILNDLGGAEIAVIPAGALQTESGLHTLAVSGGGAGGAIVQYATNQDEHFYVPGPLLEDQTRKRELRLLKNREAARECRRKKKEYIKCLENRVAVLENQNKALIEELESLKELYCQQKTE
Experiment: EMSA; shift competed by 100-fold unlabeled PS; EMSA (LightShift): 20 ul, 50 ng/ul poly(dI-dC), 2.5% glycerol, 5 mM MgCl2, 0.05% NP40, 20 fmol biotin probe, RT 20 min; pH and salt not stated. MPS (S22/S23) and NS competitors were tested only with brain nuclear extract without supershift, so not listed
Conditions: protein: ivt; chain copies: 2; blunt

B1: PS (PRMT1 promoter-specific probe) (dsDNA)
DNA 1: CGTTTTTGATATGAGGAAAATGAGCTCTGCAA
DNA 2: TTGCAGAGCTCATTTTCCTCATATCAAAAACG
binding result: binds

Reference: paper PMC9978625, “Activation of protein arginine methyltransferase 1 and subsequent extension of moth lifespan is effected by the ROS/JNK/CREB signaling axis”
